Substitutions are numbered along the chain they refer to. In names and notes the source's numbering stands.
Molecular target: T1, TNFR1 (Homo sapiens, UniProt P19438)
T1 chain: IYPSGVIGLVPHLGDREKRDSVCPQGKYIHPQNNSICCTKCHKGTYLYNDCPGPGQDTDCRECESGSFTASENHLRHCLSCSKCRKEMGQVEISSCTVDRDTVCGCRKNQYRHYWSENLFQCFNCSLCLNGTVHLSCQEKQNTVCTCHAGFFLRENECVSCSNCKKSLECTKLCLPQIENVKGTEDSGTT
Test: yeast display SC50

B1: Q4P (designed binder)
chain: MTLPELLREEALRRAEAEAFRYALELLAEKFPEQKEYLLDLAEEIESQIRSLSGVDVEDVRKFLDKEWAWVKELLAEHPAELAEVEAARAARLAELRAEVEAKVAA
- apparent Kd (screen): 3.3 nM

B2: R8M (designed binder)
chain: B1 chain with P4Q, R8M
- apparent Kd (screen): 0.49 nM

B3: S53P (designed binder)
chain: B1 chain with P4Q, S53P
- apparent Kd (screen): 13.8 nM

B4: P79S (designed binder)
chain: B1 chain with P4Q, P79S
- apparent Kd (screen): 0.593 nM

B5: A88N (designed binder)
chain: B1 chain with P4Q, A88N
- apparent Kd (screen): 0.718 nM

B6: A42M (designed binder)
chain: B1 chain with P4Q, A42M
- apparent Kd (screen): 2.48 nM

B7: E43R (designed binder)
chain: B1 chain with P4Q, E43R
- apparent Kd (screen): 0.593 nM

B8: D65V (designed binder)
chain: B1 chain with P4Q, D65V
- apparent Kd (screen): 0.956 nM

B9: E43G (designed binder)
chain: B1 chain with P4Q, E43G
- apparent Kd (screen): 0.79 nM

B10: A69Q (designed binder)
chain: B1 chain with P4Q, A69Q
- apparent Kd (screen): 0.653 nM

B11: S47H (designed binder)
chain: B1 chain with P4Q, S47H
- apparent Kd (screen): 0.539 nM

B12: L27A (designed binder)
chain: B1 chain with P4Q, L27A
- apparent Kd (screen): 0.593 nM

B13: A23P (designed binder)
chain: B1 chain with P4Q, A23P
- apparent Kd (screen): 0.718 nM

B14: E73N (designed binder)
chain: B1 chain with P4Q, E73N
- apparent Kd (screen): 1.86 nM

B15: E46A (designed binder)
chain: B1 chain with P4Q, E46A
- apparent Kd (screen): 0.49 nM

B16: E95C (designed binder)
chain: B1 chain with P4Q, E95C
- apparent Kd (screen): 0.49 nM

B17: E73Y (designed binder)
chain: B1 chain with P4Q, E73Y
- apparent Kd (screen): 0.539 nM

B18: L24W (designed binder)
chain: B1 chain with P4Q, L24W
- apparent Kd (screen): 4.83 nM

B19: L75N (designed binder)
chain: B1 chain with P4Q, L75N
- apparent Kd (screen): 0.593 nM

B20: R89H (designed binder)
chain: B1 chain with P4Q, R89H
- apparent Kd (screen): 0.539 nM

B21: E29G (designed binder)
chain: B1 chain with P4Q, E29G
- apparent Kd (screen): 0.49 nM

B22: E36H (designed binder)
chain: B1 chain with P4Q, E36H
- apparent Kd (screen): 0.49 nM

B23: R97Y (designed binder)
chain: B1 chain with P4Q, R97Y
- apparent Kd (screen): 0.49 nM

B24: L38K (designed binder)
chain: B1 chain with P4Q, L38K
- apparent Kd (screen): 4.39 nM

B25: V100S (designed binder)
chain: B1 chain with P4Q, V100S
- apparent Kd (screen): 0.49 nM

B26: L82W (designed binder)
chain: B1 chain with P4Q, L82W
- apparent Kd (screen): 0.956 nM

B27: E81F (designed binder)
chain: B1 chain with P4Q, E81F
- apparent Kd (screen): 0.718 nM

B28: A69T (designed binder)
chain: B1 chain with P4Q, A69T
- apparent Kd (screen): 0.718 nM

B29: A15L (designed binder)
chain: B1 chain with P4Q, A15L
- apparent Kd (screen): 0.368 nM

B30: A87P (designed binder)
chain: B1 chain with P4Q, A87P
- apparent Kd (screen): 0.956 nM

B31: D65Q (designed binder)
chain: B1 chain with P4Q, D65Q
- apparent Kd (screen): 0.79 nM

B32: E44K (designed binder)
chain: B1 chain with P4Q, E44K
- apparent Kd (screen): 0.956 nM

B33: V55G (designed binder)
chain: B1 chain with P4Q, V55G
- apparent Kd (screen): 0.539 nM

B34: L64H (designed binder)
chain: B1 chain with P4Q, L64H
- apparent Kd (screen): 0.956 nM

B35: F31D (designed binder)
chain: B1 chain with P4Q, F31D
- apparent Kd (screen): 2.25 nM

B36: I49M (designed binder)
chain: B1 chain with P4Q, I49M
- apparent Kd (screen): 0.869 nM

B37: I49F (designed binder)
chain: B1 chain with P4Q, I49F
- apparent Kd (screen): 0.539 nM

B38: K72M (designed binder)
chain: B1 chain with P4Q, K72M
- apparent Kd (screen): 0.49 nM

B39: S47V (designed binder)
chain: B1 chain with P4Q, S47V
- apparent Kd (screen): 0.446 nM

B40: F20G (designed binder)
chain: B1 chain with P4Q, F20G
- apparent Kd (screen): 0.869 nM

B41: D56Q (designed binder)
chain: B1 chain with P4Q, D56Q
- apparent Kd (screen): 1.4 nM

B42: L27W (designed binder)
chain: B1 chain with P4Q, L27W
- apparent Kd (screen): 0.956 nM

B43: Y37P (designed binder)
chain: B1 chain with P4Q, Y37P
- apparent Kd (screen): 18.3 nM

B44: A90P (designed binder)
chain: B1 chain with P4Q, A90P
- apparent Kd (screen): 1.4 nM

B45: L7H (designed binder)
chain: B1 chain with P4Q, L7H
- apparent Kd (screen): 7.07 nM

B46: I49K (designed binder)
chain: B1 chain with P4Q, I49K
- apparent Kd (screen): 7.78 nM

B47: E25D (designed binder)
chain: B1 chain with P4Q, E25D
- apparent Kd (screen): 1.27 nM

B48: R61P (designed binder)
chain: B1 chain with P4Q, R61P
- apparent Kd (screen): 26.9 nM

B49: M1S (designed binder)
chain: B1 chain with M1S, P4Q
- apparent Kd (screen): 0.539 nM

B50: S47A (designed binder)
chain: B1 chain with P4Q, S47A
- apparent Kd (screen): 0.49 nM

B51: L82A (designed binder)
chain: B1 chain with P4Q, L82A
- apparent Kd (screen): 0.869 nM

B52: S47D (designed binder)
chain: B1 chain with P4Q, S47D
- apparent Kd (screen): 1.27 nM

B53: K103D (designed binder)
chain: B1 chain with P4Q, K103D
- apparent Kd (screen): 0.718 nM

B54: Q4L (designed binder)
chain: B1 chain with P4L
- apparent Kd (screen): 0.446 nM

B55: E73V (designed binder)
chain: B1 chain with P4Q, E73V
- apparent Kd (screen): 1.05 nM

B56: S47P (designed binder)
chain: B1 chain with P4Q, S47P
- apparent Kd (screen): 3.3 nM

B57: E29W (designed binder)
chain: B1 chain with P4Q, E29W
- apparent Kd (screen): 0.653 nM

B58: S53L (designed binder)
chain: B1 chain with P4Q, S53L
- apparent Kd (screen): 2.25 nM

B59: E67Q (designed binder)
chain: B1 chain with P4Q, E67Q
- apparent Kd (screen): 11.4 nM
